Laboratory results taken from US20230272064A1.

Legend:
[1] = biological target: recombinant human TIGIT extracellular membrane protein with a C-terminal histidine tag (human) (UniProt Q495A1); experiment: competitive ELISA, TIGIT-His coated, competitor fixed biotin-CD155-Fc (signal), mAb at 5 µg/mL
[2] = biological target: recombinant human TIGIT extracellular membrane protein with a C-terminal histidine tag (human) (UniProt Q495A1); experiment: competitive ELISA, TIGIT-His coated, competitor fixed biotin-CD155-Fc (signal), mAb at 10 µg/mL
[3] = biological target: recombinant human TIGIT extracellular membrane protein with a C-terminal histidine tag (human) (UniProt Q495A1); experiment: competitive ELISA, TIGIT-His coated, competitor fixed biotin-CD155-Fc (signal), mAb at 2.5 µg/mL
[4] = biological target: recombinant human TIGIT extracellular membrane protein with a C-terminal histidine tag (human) (UniProt Q495A1); experiment: competitive ELISA, TIGIT-His coated, competitor fixed biotin-CD155-Fc (signal), mAb at 1.25 µg/mL
[5] = biological target: recombinant human TIGIT extracellular membrane protein with a C-terminal histidine tag (human) (UniProt Q495A1); experiment: competitive ELISA, TIGIT-His coated, competitor fixed biotin-CD155-Fc (signal), mAb at 0.005 µg/mL
[6] = biological target: recombinant human TIGIT extracellular membrane protein with a C-terminal histidine tag (human) (UniProt Q495A1); experiment: competitive ELISA, TIGIT-His coated, competitor fixed biotin-CD155-Fc (signal), mAb at 0.010 µg/mL
[7] = biological target: recombinant human TIGIT extracellular membrane protein with a C-terminal histidine tag (human) (UniProt Q495A1); experiment: competitive ELISA, TIGIT-His coated, competitor fixed biotin-CD155-Fc (signal), mAb at 0.019 µg/mL
[8] = biological target: recombinant human TIGIT extracellular membrane protein with a C-terminal histidine tag (human) (UniProt Q495A1); experiment: competitive ELISA, TIGIT-His coated, competitor fixed biotin-CD155-Fc (signal), mAb at 0.039 µg/mL
[9] = biological target: recombinant human TIGIT extracellular membrane protein with a C-terminal histidine tag (human) (UniProt Q495A1); experiment: competitive ELISA, TIGIT-His coated, competitor fixed biotin-CD155-Fc (signal), mAb at 0.078 µg/mL
[10] = biological target: recombinant human TIGIT extracellular membrane protein with a C-terminal histidine tag (human) (UniProt Q495A1); experiment: competitive ELISA, TIGIT-His coated, competitor fixed biotin-CD155-Fc (signal), mAb at 0.156 µg/mL
[11] = biological target: recombinant human TIGIT extracellular membrane protein with a C-terminal histidine tag (human) (UniProt Q495A1); experiment: competitive ELISA, TIGIT-His coated, competitor fixed biotin-CD155-Fc (signal), mAb at 0.312 µg/mL
[12] = biological target: recombinant human TIGIT extracellular membrane protein with a C-terminal histidine tag (human) (UniProt Q495A1); experiment: competitive ELISA, TIGIT-His coated, competitor fixed biotin-CD155-Fc (signal), mAb at 0.625 µg/mL

Chain of recombinant human TIGIT extracellular membrane protein with a C-terminal histidine tag (human) (Q495A1 22-141): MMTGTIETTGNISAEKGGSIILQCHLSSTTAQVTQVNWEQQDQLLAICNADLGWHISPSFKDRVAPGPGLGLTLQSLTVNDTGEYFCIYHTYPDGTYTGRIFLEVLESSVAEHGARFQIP

## anti-VEGF monoclonal antibody hPV19
[1]
  OD at 492 nm: 1.1 OD
[2]
  OD at 492 nm: 1.11 OD
[3]
  OD at 492 nm: 1.07 OD
[4]
  OD at 492 nm: 1.08 OD
[5]
  OD at 492 nm: 1.11 OD
[6]
  OD at 492 nm: 1.1 OD
[7]
  OD at 492 nm: 1.08 OD
[8]
  OD at 492 nm: 1.05 OD
[9]
  OD at 492 nm: 1.05 OD
[10]
  OD at 492 nm: 1.05 OD
[11]
  OD at 492 nm: 1.03 OD
[12]
  OD at 492 nm: 1.06 OD
